The target of assay [1] is canine kidney Na,K-ATPase (αβ protomer), erythrosin-labelled (dog (endogenous in kidney)) (UniProt P50997). Description: time-resolved phosphorescence anisotropy.
For assay [2], the target named is Na/K pump α1 subunit-CFP fusion. Description: FRET or BRET.

“canine kidney Na,K-ATPase (αβ protomer), erythrosin-labelled (from UniProt P50997;P06583) (complex)”: the stoichiometry N in assay [1] came to 2.

“phospholemman-citrineYFP fusion (natural protein)” showed an increase of donor fluorescence on acceptor photobleaching in assay [2] of 23.8%.

The values are drawn from publication PMC2268108.
